Measured values published in publication PMC7997659, “Architecture and structural dynamics of the heteromeric GluK2/K5 kainate receptor” (eLife, 2021).

B3: GluK2em (rat GluK2 cryo-EM expression construct) (receptor, UniProt P42260 32-908, looked up)
chain: TTHVLRFGGIFEYVESGPMGAEELAFRFAVNTINRNRTLLPNTTLTYDTQKINLYDSFEASKKACDQLSLGVAAIFGPSHSSSANAVQSICNALGVPHIQTRWKHQVSDNKDSFYVSLYPDFSSLSRAILDLVQFFKWKTVTVVYDDSTGLIRLQELIKAPSRYNLRLKIRQLPADTKDAKPLLKEMKRGKEFHVIFDCSHEMAAGILKQALAMGMMTEYYHYIFTTLDLFALDVEPYRYSGVNMTGFRILNTENTQVSSIIEKWSMERLQAPPKPDSGLLDGFMTTDAALMYDAVHVVSVAVQQFPQMTVSSLQCNRHKPWRFGTRFMSLIKEAHWEGLTGRITFNKTNGLRTDFDLDVISLKEEGLEKIGTWDPASGLNMTESQKGKPANITDSLSNRSLIVTTILEEPYVLFKKSDKPLYGNDRFEGYCIDLLRELSTILGFTYEIRLVEDGKYGAQDDVNGQWNGMVRELIDHKADLAVAPLAITYVREKVIDFSKPFMTLGISILYRKPNGTNPGVFSFLNPLSPDIWMYVLLAYLGVSVVLFVIARFSPYEWYNPHPSNPDSDVVENNFTLLNSFWFGVGALMQQGSELMPKALSTRIVGGIWWFFTLIIISSYTANLAAFLTVERMESPIDSADDLAKQTKIEYGAVEDGATMTFFKKSKISTYDKMWAFMSSRRQSVLVKSNEEGIQRVLTSDYAFLMESTTIEFVTQRNCNLTQIGGLIDSKGYGVGTPMGSPYRDKITIAILQLQEEGKLHMMKEKWWRGNGCPEEESKEASALGVQNIGGIFIVLAAGLVLSVFVAVGEFLYKSKKNAQLEKRSFCSAMVEELRMSLKCQRRLKHKPQAPVIVKTEEVINMHTFNDRRLPGKETMA
modifications: N-linked glycans at N67, N378, N412, N546
notes: signal peptide in the construct; rat GluK2 (GRIK2_RAT), full-length gene, RNA-edited at position 567 (I to V), with C576V and C595S; Two copies stand in the GluK2/K5em tetramer (B/D positions); No thrombin cleavage step is told in the purification; also called B/D subunits; source: HEK293S GnTI- cells, BacMam, co-expressed with GluK5em, purified (Strep-Tactin, 1D4 resin, Superose 6); HEK293T, …

Assays:
wild-type GluK2 (rat) = wild-type GluK2 (rat) (UniProt P42260)
[1] = target: B3; assay: cryo-EM structure; GluK2/K5em co-expressed and co-purified in DDM/CHS, 3.7 mg/mL, with 1 mM CNQX (antagonist-bound); full-length 5.3 Å, ATD layer 3.6 Å, LBD-TMD 4.2 Å; settings: both partners purified
[2] = target: the molecule itself; assay: as above

B1: wild-type GluK5 (receptor)
chain: NPSCQVLSSLRMAAILDDQTVCGRGERLALALAREQINGIIEVPAKARVEVDIFELQRDSQYETTDTMCQILPKGVVSVLGPSSSPASASTVSHICGEKEIPHIKVGPEETPRLQYLRFASVSLYPSNEDVSLAVSRILKSFNYPSASLICAKAECLLRLEELVRGFLISKETLSVRMLDDSRDPTPLLKEIRDDKVSTIIIDANASISHLVLRKASELGMTSAFYKYILTTMDFPILHLDGIVEDSSNILGFSMFNTSHPFYPEFVRSLNMSWRENCEASTYPGPALSAALMFDAVHVVVSAVRELNRSQEIGVKPLACTSANIWPHGTSLMNYLRMVEYDGLTGRVEFNSKGQRTNYTLRILEKSRQGHREIGVWYSNRTLAMNATTLDINLSQTLANKTLVVTTILENPYVMRRPNFQALSGNERFEGFCVDMLRELAELLRFRYRLRLVEDGLYGAPEPNGSWTGMVGELINRKADLAVAAFTITAEREKVIDFSKPFMTLGISILYRVHMGRKPGYFSFLDPFSPAVWLFMLLAYLAVSCVLFLAARLSPYEWYNPHPCLRARPHILENQYTLGNSLWFPVGGFMQQGSEIMPRALSTRCVSGVWWAFTLIIISSYTANLAAFLTVQRMEVPVESADDLADQTNIEYGTIHAGSTMTFFQNSRYQTYQRMWNYMQSKQPSVFVKSTEEGIARVLNSRYAFLLESTMNEYHRRLNCNLTQIGGLLDTKGYGIGMPLGSPFRDEITLAILQLQENNRLEILKRKWWEGGRCPKEEDHRAKGLGMENIGGIFVVLICGLIIAVFVAVMEFIWSTRRSAESEEVSVCQEMLQELRHAVSCRKTSRSRRRRRPGGPSRALLSLRAVREMRLSNGKLYSAGAGGDAGAHGGPQRLLDDPGPPGGPRPQAPTPCTHVRVCQECRRIQALRASGAGAPPRGLGTPAEATSPPRPRPGPTGPRELTEHE
With B1 the deactivation current decay after a 1 ms pulse of 1 mM L-Glu, outside-out patches of HEK293T cells co-transfected with wild-type GluK2 and GluK5; weighted τ (wild-type GluK2 (rat)) was 23.6 ms and the deactivation current decay after a 1 ms pulse of 1 mM L-Glu, outside-out patches of HEK293T cells co-transfected with wild-type GluK2 and GluK5; τ3 (slow component) (wild-type GluK2 (rat)) was 60 ms.

B2: GluK5em (rat GluK5 cryo-EM expression construct) (receptor)
chain: NPSCQVLSSLRMAAILDDQTVCGRGERLALALAREQINGIIEVPAKARVEVDIFELQRDSQYETTDTMCQILPKGVVSVLGPSSSPASASTVSHICGEKEIPHIKVGPEETPRLQYLRFASVSLYPSNEDVSLAVSRILKSFNYPSASLICAKAECLLRLEELVRGFLISKETLSVRMLDDSRDPTPLLKEIRDDKVSTIIIDANASISHLVLRKASELGMTSAFYKYILTTMDFPILHLDGIVEDSSNILGFSMFNTSHPFYPEFVRSLNMSWRENCEASTYPGPALSAALMFDAVHVVVSAVRELNRSQEIGVKPLACTSANIWPHGTSLMNYLRMVEYDGLTGRVEFNSKGQRTNYTLRILEKSRQGHREIGVWYSNRTLAMNATTLDINLSQTLANKTLVVTTILENPYVMRRPNFQALSGNERFEGFCVDMLRELAELLRFRYRLRLVEDGLYGAPEPNGSWTGMVGELINRKADLAVAAFTITAEREKVIDFSKPFMTLGISILYRVHMGRKPGYFSFLDPFSPAVWLFMLLAYLAVSVVLFLAARLSPYEWYNPHPSLRARPHILENQYTLGNSLWFPVGGFMQQGSEIMPRALSTRIVSGVWWAFTLIIISSYTANLAAFLTVQRMEVPVESADDLADQTNIEYGTIHAGSTMTFFQNSRYQTYQRMWNYMQSKQPSVFVKSTEEGIARVLNSRYAFLLESTMNEYHRRLNCNLTQIGGLLDTKGYGIGMPLGSPFRDEITLAILQLQENNRLEILKRKWWEGGRCPKEEDHRAKGLGMENIGGIFVVLIAGLIIAVFVAVMEFIYKSRAEAKRMK
modifications: N-linked glycans at N219, N271, N322, N372, N394
notes: signal peptide in the construct; rat GluK5 (GRIK5_RAT), from the full-length gene, truncated at position 827 after the M4 helix, four cysteines mutated; GluA2 'tail' ('A2 tail') added at the subunit C-terminus in place of the GluK5 C-terminus; GluK5 with point mutations and its C-terminus replaced by the GluA2 tail; Two copies stand in the GluK2/K5em tetramer (A/C positions); No thrombin cleavage …
In the case of B2, the “stoichiometry N” value [1] is reported as 1 GluK5 per GluK2 (printed as 2:2).

B3: binds [2].
